# US20240026024A1 (SHANGHAI HUAOTA BIOPHARMACEUTICAL, published 2024)
# Where two headings read alike, the source gives them in different places.
# T1: human CD73 on the cell surface (human, UniProt P21589 27-549)
# T1 sequence: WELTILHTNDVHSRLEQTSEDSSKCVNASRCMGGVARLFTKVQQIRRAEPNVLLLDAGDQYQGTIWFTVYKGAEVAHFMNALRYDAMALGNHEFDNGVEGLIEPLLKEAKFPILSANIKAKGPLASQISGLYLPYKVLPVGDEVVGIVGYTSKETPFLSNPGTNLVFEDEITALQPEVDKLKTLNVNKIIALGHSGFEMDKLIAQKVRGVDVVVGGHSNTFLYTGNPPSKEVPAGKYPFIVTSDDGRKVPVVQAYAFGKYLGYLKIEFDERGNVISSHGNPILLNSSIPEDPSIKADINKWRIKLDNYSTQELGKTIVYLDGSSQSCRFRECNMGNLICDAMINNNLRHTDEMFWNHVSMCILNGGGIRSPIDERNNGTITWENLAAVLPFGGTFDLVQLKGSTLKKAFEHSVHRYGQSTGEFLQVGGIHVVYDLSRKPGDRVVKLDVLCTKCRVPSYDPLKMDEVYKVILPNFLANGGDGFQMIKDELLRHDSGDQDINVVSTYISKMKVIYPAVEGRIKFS
# T2: human CD73 protein (ACRO Biosystems, Cat No. CD3-H52H7) (human, UniProt P21589 27-547)
# T2 sequence: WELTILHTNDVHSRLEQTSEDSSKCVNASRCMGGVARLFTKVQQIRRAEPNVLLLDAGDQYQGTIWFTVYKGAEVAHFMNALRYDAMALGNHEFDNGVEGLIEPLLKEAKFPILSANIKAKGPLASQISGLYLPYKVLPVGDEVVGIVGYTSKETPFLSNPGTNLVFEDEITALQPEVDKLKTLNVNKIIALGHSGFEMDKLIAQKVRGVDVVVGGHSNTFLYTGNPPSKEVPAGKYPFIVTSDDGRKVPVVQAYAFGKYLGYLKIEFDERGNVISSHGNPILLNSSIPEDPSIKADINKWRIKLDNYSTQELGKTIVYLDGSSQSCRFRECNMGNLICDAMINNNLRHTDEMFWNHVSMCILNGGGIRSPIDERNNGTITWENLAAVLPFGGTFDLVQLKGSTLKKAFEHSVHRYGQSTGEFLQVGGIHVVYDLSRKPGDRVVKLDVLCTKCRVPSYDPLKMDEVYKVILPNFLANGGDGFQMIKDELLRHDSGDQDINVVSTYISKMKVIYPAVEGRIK
# T3: mouse CD73/NT5E (ACRO Biosystems, Cat No. CD3-M52H9) (mouse, UniProt Q61503 29-551)
# T3 construct: Bought protein
# T3 sequence (looked up): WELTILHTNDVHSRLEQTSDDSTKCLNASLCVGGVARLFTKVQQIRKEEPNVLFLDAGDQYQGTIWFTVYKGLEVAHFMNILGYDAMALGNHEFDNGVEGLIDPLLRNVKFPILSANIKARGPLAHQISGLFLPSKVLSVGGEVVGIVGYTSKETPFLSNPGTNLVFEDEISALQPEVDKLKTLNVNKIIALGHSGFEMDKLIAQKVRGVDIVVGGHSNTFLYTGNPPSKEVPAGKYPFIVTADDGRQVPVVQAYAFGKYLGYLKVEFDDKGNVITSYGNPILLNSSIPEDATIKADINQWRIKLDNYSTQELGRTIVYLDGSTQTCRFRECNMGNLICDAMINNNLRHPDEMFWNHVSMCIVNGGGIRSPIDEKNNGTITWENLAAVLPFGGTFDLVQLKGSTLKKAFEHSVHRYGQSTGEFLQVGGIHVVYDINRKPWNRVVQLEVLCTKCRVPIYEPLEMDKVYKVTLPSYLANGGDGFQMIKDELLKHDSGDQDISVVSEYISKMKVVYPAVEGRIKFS
# T4: rat CD73 (Novoprotein, Cat No. CB16) (rat, UniProt P21588 29-551, limits assumed)
# T4 construct: Bought protein
# T4 sequence (looked up): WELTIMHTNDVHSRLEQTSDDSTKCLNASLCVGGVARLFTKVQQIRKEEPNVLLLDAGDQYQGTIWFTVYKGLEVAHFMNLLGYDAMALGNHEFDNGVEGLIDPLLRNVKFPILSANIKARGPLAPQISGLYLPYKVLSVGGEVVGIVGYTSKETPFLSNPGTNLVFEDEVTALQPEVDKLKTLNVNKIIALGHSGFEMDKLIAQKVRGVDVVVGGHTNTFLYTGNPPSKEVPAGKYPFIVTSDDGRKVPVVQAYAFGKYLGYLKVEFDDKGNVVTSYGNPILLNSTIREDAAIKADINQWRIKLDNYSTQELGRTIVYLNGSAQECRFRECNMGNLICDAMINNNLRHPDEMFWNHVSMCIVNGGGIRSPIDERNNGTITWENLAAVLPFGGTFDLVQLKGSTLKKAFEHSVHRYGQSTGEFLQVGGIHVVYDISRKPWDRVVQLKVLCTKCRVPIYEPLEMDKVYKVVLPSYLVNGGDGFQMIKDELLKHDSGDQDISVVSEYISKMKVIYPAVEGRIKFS
# Assays:
# [1] = target: T1, human CD73 on the cell surface; experiment: cell-based or functional assay
# [2] = target: T2, human CD73 protein (ACRO Biosystems, …); experiment: cell-based or functional assay
# [3] = target: T3, mouse CD73/NT5E (ACRO Biosystems, Cat …); experiment: SPR (Biacore T200), antibody captured on protein A chip
# Method: (§1) The temperatures of the sample chamber and flow path were set at 25° C. The protein A chips separately captured the antigen-binding proteins as ligands, which were immobilized at about 100 RU. […] Ten mM Glycine, pH 1.5, was regenerated for 60 s at a flow rate of 50 L/min for multiple cycle kinetic detection. The binding rate constant (ka), dissociation rate constant (kd) and dissociation equilibrium rate constant (KD) were fitted using the Fit local mode of a 1:1 binding model.
# [4] = target: T4, rat CD73 (Novoprotein, Cat No. CB16); experiment: as above
# Method: as §1
# [5] = target: T1, human CD73 on the cell surface; experiment: flow cytometry on CHOK1-huCD73-3F4 cells, PE anti-human Fc
# Method: (§2) All the antigen-binding proteins were diluted to 30 μg/ml with PBS solution containing 1% BSA (1% BSA/PBS), diluted at 3-fold into 11 gradients and then added to a 96-well U-shaped plate at 20 μL/well, and negative control (1% BSA/PBS was added only) was set up simultaneously. The suspension of human CD73-expressing cells (CHOK1-huCD73-3F4, Huabo Biopharm) in the logarithmic growth phase were collected and centrifuged at 1000 rpm for 5 min, and the culture medium was discarded; then the cells were resuspended with 1% BSA/PBS to a viable cell density of 1×10⁶/mL, and then added into the 96-well U-shaped plate already added with anti-CD73 antigen-binding protein at 20 μL (2×10⁴ cells)/well for reaction at room temperature for 30 min. […] After the reaction, the cells in the 96-well U-shaped plate were resuspended with 1% BSA/PBS and centrifuged at 300 g for 3 min and the supernatant was discarded; after washing in this manner 3 times, and the cells were finally resuspended with 1% BSA/PBS at 100 μL/well, and the fluorescence intensity of the PE channel was measured with a flow cytometer (BD, #Canto II).
# [6] = target: T2, human CD73 protein (ACRO Biosystems, …); experiment: SPR (Biacore T200), antibody captured on protein A chip, CD73 as analyte, 1:1 model
# Method: as §1, with “μL/min” for “L/min”
# [7] = target: T1, human CD73 on the cell surface; experiment: cell-based or functional assay; remark: listed apart in the source
# [8] = target: T1, human CD73 on the cell surface; experiment: flow cytometry on CHOK1-huCD73-3F4 cells, PE anti-human Fc; remark: listed apart in the source
# Method: as §2
binder,measurement,setting,value
"900222 (antibody, from another filing, V domains shown) VH: QVQLVESGGGVVQPGRSLRLSCAASGFTFSNYGMHWVRQAPGKGLEWVAVILYDGSNKYYPDSVKGRFTISRDNSKNTLYLQMNSLRAEDTAVYYCARGGSSWYPDSFDIWGQGTMVTVSS VL: DIQMTQSPSSLSASVGDRVTITCRASQGISSWLAWYQQKPEKAPKSLIYAASSLQSGVPSRFSGSGSGTDFTLTISSLQPEDFATYYCQQYNSYPLTFGGGTKVEIKR",Endocytosis efficiency (%),[1],44.2%
"900694 (antibody, V domains shown, Constant regions are not restated; it was detected with anti-human Fc and captured on protein A) VH: EVQLVESGGGLVKPGGSLRLSCAASGFTFSKYAMSWVRQAPGKGLEWVAEISSGGGYINYPDTVTGRFTISRDNAKNSLYLQMNSLRAEDTAVYYCARAIYYYGSSYNYYAMDYWGQGTTVTVSS VL: DIQMTQSPSSLSASVGDRVTITCRASQDVGTAEAWYQQKPGKAPKLLIYWASTRHTGVPDRFSGSGSGTDFTLTISSLQPEDFATYYCQQYSSYPLTFGQGTKLEIK","EC50(µg/mL), inhibition of recombinant CD73 (CellTiter-Glo)",[2],0.681 µg/mL
same,binding result,[3],no binding (tested: up to 50 nM analyte)
same,binding result,[4],no binding (tested: up to 50 nM analyte)
same,EC50,[5],0.646 µg/mL
same,Kd,[6],1.5 nM
same,koff,[6],0.000493 s⁻¹
same,kon,[6],329000 M⁻¹ s⁻¹
"900565 (antibody, V domains shown, Chimeric antibody derived from hybridoma 115B10; it was detected with anti-human Fc) VH: QAYLQQSGAELVRPGASVKMSCKASGYTFTSYNMHWVKQTPRQGLEWIGAIYPGNGDTSYNQKFKGKATLNVDKSSSTAYMQLSSLTSEDSAVYFCARWGYGSNYAWYFDIWGTGTTVTVSS VL: DIQMTQSPASLSASVGETVTITCRTSGNIHNYLVWYQQKQGKSPQLLVFNAKTLADGVPSRFSGSGSGTQYSLKINSLQPEDFGSYYCQHFWSTPFTFGSGTKLEIK","EC50(µg/mL), inhibition of enzyme activity of CD73 on CHOK1-huCD73-3F4 cells",[7],1.62 µg/mL
same,EC50,[8],2.14 µg/mL
